According to patent EP2108954A1, “A test system for detecting intracellular cyclic nucleotide level and methods and uses thereof” (Max-Planck-Gesellschaft zur Förderung der Wissenschaften …, priority 2008, dated 2009):
The star is where a group is joined. Myristoyl = CCCCCCCCCCCCCC(=O)*

Target: T1, Or83b (Drosophila melanogaster, UniProt Q9VNB5)
T1 sequence (Q9VNB5 1-486): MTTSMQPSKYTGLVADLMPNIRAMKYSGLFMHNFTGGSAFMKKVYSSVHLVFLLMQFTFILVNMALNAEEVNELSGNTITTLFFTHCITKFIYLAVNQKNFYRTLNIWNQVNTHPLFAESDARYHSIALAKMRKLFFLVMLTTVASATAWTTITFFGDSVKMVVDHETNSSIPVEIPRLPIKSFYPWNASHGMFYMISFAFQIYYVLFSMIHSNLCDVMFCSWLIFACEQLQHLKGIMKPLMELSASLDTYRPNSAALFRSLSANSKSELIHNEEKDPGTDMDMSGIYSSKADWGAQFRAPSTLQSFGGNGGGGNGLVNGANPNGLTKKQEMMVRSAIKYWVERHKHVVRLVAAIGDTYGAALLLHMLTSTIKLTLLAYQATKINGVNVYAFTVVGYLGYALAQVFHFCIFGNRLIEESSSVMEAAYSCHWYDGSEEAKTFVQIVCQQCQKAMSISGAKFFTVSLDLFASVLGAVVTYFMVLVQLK
Assay: Whole-cell patch-clamp of HEK293 cells expressing Or83b alone
Type: cell-based
Design: expressed in transfected cells; host or cells: HEK293
Details: 1 µM; n = 6
Method: HEK293 cells were cultured as described by Wicher and colleagues (Wicher et al., J. Biol. Chem. 281, 3227-36 (2006)). In brief, HEK293 cells were cultured at a density of ∼2*10^4 per 35-mm dish and transfected with 1 µg pcDNA3-DOR22a-GFP and 1 µg pcDNA3-DOR83b-GFP (Neuhaus, et al., Nat. Neurosci. 8, 15-17 (2005); DNAs were a generous gift of Dr. E. Neuhaus and Dr. H. Hatt) using Roti-Fect transfection kit (Roth, Karlsruhe, Germany). In some experiments we transfected cells with pcDNA3-DOR22a-GFP or pcDNA3-DOR83b-GFP alone. We also examined the properties of DOR47a, which was cloned, using standard molecular biology methods into a pcDNA3.1(-) expression vector. To test for putative G-protein coupling, cells were transfected with the respective OR-DNA together with 1.5 µg hHCN2/pcDNA3 (provided by M. Biel, Munich, Germany), with 1 µg hKCNQ4/pcDNA3.1 or with 1 µg hCNGA2/pCMV6-XL4 (Origene, Rockville, MD, USA).
Ion currents in HEK293 cells were measured with the patch-clamp technology as described (Wicher et al, J. Biol. Chem. 281, 3227-36 (2006)). In brief, ion currents in HEK293 cells were measured at room temperature using whole-cell patch-clamp with appropriate compensation of series resistance and of capacitive currents. Additional experiments were performed in the outside-out configuration. […]

myristoylated PKA inhibiting peptide 14-22 amide (Myristoyl-SGRTGRRNA-NH2; SMILES CCCCCCCCCCCCCC(=O)N[C@@H](CO)C(=O)NCC(=O)N[C@@H](CCCNC(=N)N)C(=O)N[C@H](C(=O)NCC(=O)N[C@@H](CCCNC(=N)N)C(=O)N[C@@H](CCCNC(=N)N)C(=O)N[C@@H](CC(N)=O)C(=O)N[C@@H](C)C(N)=O)[C@@H](C)O; UniProt P61925 14-22, looked up, fragment) [PKI1422]
effect of preincubation on ion currents elicited by 8-bromo-cAMP: not significantly altered
